B1: DNA polymerase alpha catalytic subunit (Mus musculus), P33609 (parent)
chain: MAPMHEEDCKLEASAVSDSGSFAASRARREKKSKKGRQEALERLKKAKAGEKYKYEVEDLTSVYEEVDEEQYSKLVQARQDDDWIVDDDGIGYVEDGREIFDDDLEDDALDTCGKGSDGKAHRKDRKDVKKPSVTKPNNIKAMFIASAGKKTTDKAVDLSKDDLLGDILQDLNTETAQITPPPVLIPKKKRSTGALLNPFSVHTPKAIPSGKPASPVLRNEPLLTPIPLKRAELAGELAQPECPEDEQELGVMEFEDGDFDESMDTEKVDEKPVTAKTWDQETEPVERVEHEADPERGTTSYLENFLPDVSCWDIDQDDESIPQEVQVDSSNLPLVKGADDEQVFQFYWLDAYEDPYNQPGVVFLFGKVWIESVKTHVSCCVMVKNIERTLYFLPREMKFDLNTGKETAIPVTMKDVYEEFDSKISAKYKIMKFKSKIVEKNYAFEIPDVPEKSEYLEVRYSAEVPQLPQNLKGETFSHVFGTNTSSLELFLMNRKIKGPCWLEVKNPQLLNQPISWCKFEVMALKPDLVNVIKDVSPPPLVVMSFSMKTMQNVQNHQHEIIAMAALVHHSFALDKAPPEPPFQTHFCVVSKPKDCIFPCDFKEVISKKNMKVEIAATERTLIGFFLAKVHKIDPDILVGHNICSFELEVLLQRINECKVPYWSKIGRLRRSNMPKLGSRSGFGERNATCGRMICDVEISAKELIHCKSYHLSELVQQILKTERIVIPTENIRNMYSESSYLLYLLEHIWKDARFILQIMCELNVLPLALQITNIAGNIMSRTLMGGRSERNEFLLLHAFYENNYIVPDKQIFRKPQQKLGDEDEEIDGDTNKYKKGRKKATYAGGLVLDPKVGFYDKFILLLDFNSLYPSIIQEFNICFTTVQRVTSEVQKATEDEEQEQIPELPDPNLEMGILPREIRKLVERRKQVKQLMKQQDLNPDLVLQYDIRQKALKLTANSMYGCLGFSYSRFYAKPLAALVTYKGREILMHTKDMVQKMNLEVIYGDTDSIMINTNSTNLEEVFKLGNKVKSEVNKLYKLLEIDIDAVFKSLLLLKKKKYAALVVEPTSDGNYITKQELKGLDIVRRDWCDLAKDTGNFVIGQILSDQSRDTIVENIQKRLIEIGENVLNGSVPVSQFEINKALTKDPQDYPDRKSLPHVHVALWINSQGGRKVKAGDTVSYVICQDGSNLTATQRAYAPEQLQKLDNLAIDTQYYLAQQIHPVVARICEPIDGIDAVLIALWLGLDSTQFRVHQYHKDEENDALLGGPAQLTDEEKYKDCEKFKCLCPSCGTENIYDNVFEGSGLDMEPSLYRCSNVDCKVSPLTFMVQLSNKLIMDIRRCIKKYYDGWLICEEPTCCSRLRRLPLHFSRNGPLCPVCMKAVLRPEYSDKSLYTQLCFYRYIFDADCALEKLTEHEKDKLKKQFFPLRVLQDYRKVKNIAEQFLSWSGYSEVNLSKLFANYAGKS
partner: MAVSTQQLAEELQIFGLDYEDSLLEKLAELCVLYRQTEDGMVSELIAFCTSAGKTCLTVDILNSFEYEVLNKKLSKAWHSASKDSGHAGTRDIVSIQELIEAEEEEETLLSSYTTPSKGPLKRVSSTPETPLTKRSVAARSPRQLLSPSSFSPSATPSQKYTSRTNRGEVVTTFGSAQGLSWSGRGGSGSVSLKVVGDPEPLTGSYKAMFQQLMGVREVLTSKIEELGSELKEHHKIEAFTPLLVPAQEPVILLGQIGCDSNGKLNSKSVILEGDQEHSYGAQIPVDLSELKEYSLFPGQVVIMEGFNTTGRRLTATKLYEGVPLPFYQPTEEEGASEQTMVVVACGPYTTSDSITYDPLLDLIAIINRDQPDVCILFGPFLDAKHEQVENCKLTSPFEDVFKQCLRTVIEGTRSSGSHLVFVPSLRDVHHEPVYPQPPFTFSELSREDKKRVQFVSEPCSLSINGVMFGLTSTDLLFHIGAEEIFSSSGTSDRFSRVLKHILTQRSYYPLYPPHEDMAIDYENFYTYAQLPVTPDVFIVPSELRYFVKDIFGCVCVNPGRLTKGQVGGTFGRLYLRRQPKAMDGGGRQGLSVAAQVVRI

Variants of: B1
Conditions: with dpoa2_mouse Pola2, P33611

| effect of a mutation on the interaction | Variant |
| --- | --- |
| decreasing interaction | C1287A;C1290A |
| decreasing interaction | C1375A;C1378A |
